The source of these data is paper doi:10.1101/2021.01.20.427433, “Microarray screening reveals a non-conventional SUMO-binding mode linked to DNA repair by non-homologous end-joining” (bioRxiv, 2021).

The assay concerns the target T1, XLF-6xHis (human, UniProt Q9H9Q4 1-299).
T1 construct: XLF, human, amplified from pGEX2TKP-XLF; source: E. coli (pHAT5), purified (His-trap, HiTrap Q)
Put plainly: BLI; XLF-6xHis and XRCC4^1-164 wildtype or mutants. To be noted: both partners purified.

T1 sequence (Q9H9Q4 whole entry): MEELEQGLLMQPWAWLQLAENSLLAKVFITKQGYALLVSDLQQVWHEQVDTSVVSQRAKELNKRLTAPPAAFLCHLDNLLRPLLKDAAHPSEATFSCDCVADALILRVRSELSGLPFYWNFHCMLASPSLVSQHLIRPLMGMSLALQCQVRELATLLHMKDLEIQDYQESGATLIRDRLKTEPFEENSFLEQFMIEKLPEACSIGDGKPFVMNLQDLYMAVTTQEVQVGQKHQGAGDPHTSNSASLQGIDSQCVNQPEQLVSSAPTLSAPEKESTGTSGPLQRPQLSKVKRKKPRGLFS

B1: 6xHis-XRCC4^1-164 (C-to-A), wildtype for the SIMs (domain or fragment, human, UniProt Q13426 1-164, looked up)
chain: MERKISRIHLVSEPSITHFLQVSWEKTLESGFVITLTDGHSAWTGTVSESEISQEADDMAMEKGKYVGELRKALLSGAGPADVYTFNFSKESAYFFFEKNLKDVSFRLGSFNLEKVENPAEVIRELIAYALDTIAENQAKNEHLQKENERLLRDWNDVQGRFEK
modifications: 15N-labelled where it is the observed protein in NMR
notes: The three cysteines are printed for the 1-180 construct amplified from this vector; also called XRCC4 head domain; source: E. coli BL21-CodonPlus (DE3)-RIL (pET-28a), purified; isotope-labelled in minimal medium for NMR
For B1, the binding result is reported as “binds”.
